Where a SMILES comes first, the peptide text is derived from it. Bridges are numbered along the chain shown (N, C = ends). [ ]: non-standard residue; d: D form. The star is where a group is joined. DOTA(p-xylylenediamine) = O=C(O)CN1CCN(CC(=O)O)CCN(CC(=O)NCc2ccc(CN*)cc2)CCN(CC(=O)O)CC1; DOTA = O=C(O)CN1CCN(CC(=O)O)CCN(CC(=O)*)CCN(CC(=O)O)CC1; Tyr(3-Cl) = N[C@@H](Cc1ccc(O)c(Cl)c1)C(=O)O; Hyp = O=C(O)[C@@H]1C[C@@H](O)CN1
Columns and labels:
[1] = Size exclusion chromatography HPLC-ICP-MS of plasma samples to detect transchelation to plasma proteins; assay type: in vivo; conditions: rats, i.v., SEC HPLC-ICP-MS (BioSep-SEC-s2000, TBS), compared with pure Ga-/In-transferrin standard
Method: Ga and In transferrin complexes were synthesized using a 1.3 equivalent excess of protein and purification with Zeba™ Spin Desalting Columns (ThermoFisher Scientific), to remove unchelated Ga and In. TBS buffer was prepared by mixing 150 mM NaCl, 50 mM Tris and 5 mM NaHCO3 followed by stirring over chelex overnight and subsequent filtration.
An Agilent 8800 ICP-MSMS interfaced to an Agilent 1260 HPLC was used. 20% option gas (20% O2, 80% Ar) was added to pyrolyze any carbon deposits on the cones from the HPLC mobile phase while 40% O2 was used as cell gas when conducting reverse phase analysis. HPLC method 3: C18 column (Kromasil 5 μm C18, 250 × 4.60 mm), 0.8 mL/min, mobile phase A (water, 10 mM NaOAc), mobile phase B (90% acetonitrile, 10% 10 mM NaOAc), gradient: min. 0–2: 5% B; min 12: 50% B; min 13: 95% B; min 15: 95% B; min 16: 5% B; min 18: 5% B. HPLC method 4: size exclusion chromatography (SEC) Column (Phenomenex BioSep-SEC-s2000, 300 × 7.80 mm), 1 mL/min, mobile phase TBS, isocratic, 18 min. […] Ga(DOTA) and In(DOTA) were used to determine the limit of detection and limit of quantification, and to generate a calibration curve for quantification using RP-separation. […] 100 μL of each standard was analyzed by direct injection onto the reverse phase HPLC-ICP-MS (HPLC method 3), and the integrals of each metal-FBP peak were recorded. An aliquot of each calibration standard was then digested 1:1 with nitric acid and incubated overnight at 37 °C before being analyzed for its metal concentration by ICP-MS. These metal concentrations were plotted against the previously recorded integrals to generate the metal-FBP calibration plots (Additional file 1: Figure S1). Limits of detection and quantification were calculated using an established method (MacDougall & Crummett [1980]).
Ga-FBP17, Ga-FBP18, In-FBP15, In-FBP19 (50–150 nmol, with concentrations determined by direct inject ICP-MS) in 0.6 mL sterile PBS were injected either individually or as a mixture of Ga-FBP17/In-FBP15 or Ga-FBP18/In-FBP19 into anesthetized rats via cannulated femoral vein, followed by saline flush. […]

[2] = Plasma pharmacokinetics and metabolite profiling by reverse phase HPLC-ICP-MS after i.v. injection; assay type: in vivo; conditions: rats; for metabolic behavior in plasma over time (degradation of intact probe): i.v., plasma 5-60 min post injection, C18 HPLC-ICP-MS chromatograms; for relative amount of metabolites with time post injection: plasma, C18 HPLC-ICP-MS, Ga-FBP18: metabolite group C (shortest retention times), In-FBP19: all metabolites
Method: An Agilent 8800 ICP-MSMS interfaced to an Agilent 1260 HPLC was used. 20% option gas (20% O2, 80% Ar) was added to pyrolyze any carbon deposits on the cones from the HPLC mobile phase while 40% O2 was used as cell gas when conducting reverse phase analysis. HPLC method 3: C18 column (Kromasil 5 μm C18, 250 × 4.60 mm), 0.8 mL/min, mobile phase A (water, 10 mM NaOAc), mobile phase B (90% acetonitrile, 10% 10 mM NaOAc), gradient: min. 0–2: 5% B; min 12: 50% B; min 13: 95% B; min 15: 95% B; min 16: 5% B; min 18: 5% B. HPLC method 4: size exclusion chromatography (SEC) Column (Phenomenex BioSep-SEC-s2000, 300 × 7.80 mm), 1 mL/min, mobile phase TBS, isocratic, 18 min. The SEC column was standardized using a protein marker kit (Sigma-Aldrich, P/N: MWGF1000). Ga(DOTA) and In(DOTA) were used to determine the limit of detection and limit of quantification, and to generate a calibration curve for quantification using RP-separation. Calibration standards of Ga(DOTA) and In(DOTA) ranging from 10 nM to 1 μM were prepared by serial dilution from stocks. 100 μL of each standard was analyzed by direct injection onto the reverse phase HPLC-ICP-MS (HPLC method 3), and the integrals of each metal-FBP peak were recorded. An aliquot of each calibration standard was then digested 1:1 with nitric acid and incubated overnight at 37 °C before being analyzed for its metal concentration by ICP-MS. These metal concentrations were plotted against the previously recorded integrals to generate the metal-FBP calibration plots (Additional file 1: Figure S1). Limits of detection and quantification were calculated using an established method (MacDougall & Crummett [1980]).
Ga-FBP17, Ga-FBP18, In-FBP15, In-FBP19 (50–150 nmol, with concentrations determined by direct inject ICP-MS) in 0.6 mL sterile PBS were injected either individually or as a mixture of Ga-FBP17/In-FBP15 or Ga-FBP18/In-FBP19 into anesthetized rats via cannulated femoral vein, followed by saline flush. Blood (0.2 mL) was drawn at time points 5, 10, 15, 30 and 60 min post injection via cannulated femoral artery into heparin-containing tubes. Tubes were centrifuged at 2000 g for 10 min to separate the plasma. Plasma was diluted 1:1 with chelex-treated TBS and 100 μL of sample was injected onto the HPLC-ICP-MSMS, scanning for Ga and In at m/z = 69 and 115, respectively. Peaks were integrated and measured against a standard calibration curve.

Structure (SMILES): CC[C@H](C)[C@H](NC(=O)[C@H](Cc1c[nH]c2ccccc12)NC(=O)[C@@H]1CSSC[C@H](NC(=O)[C@@H](CCC(=O)O)NC(=O)[C@H](Cc2c[nH]c3ccccc23)NC(=O)CN2CCN(CC(=O)O)CCN(CC(=O)O)CCN(CC(=O)O)CC2)C(=O)N2C[C@H](O)C[C@H]2C(=O)N[C@@H](Cc2ccc(O)c(Cl)c2)C(=O)NCC(=O)N[C@@H](CC(C)C)C(=O)N1)C(=O)N[C@@H](CCC(N)=O)C(=O)NCc1ccc(CNC(=O)CN2CCN(CC(=O)O)CCN(CC(=O)O)CCN(CC(=O)O)CC2)cc1 [Ga-FBP18] ({DOTA}-W[dE]C[Hyp][Tyr(3-Cl)]GLCWIQ-{DOTA(p-xylylenediamine)}; disulfide 3-8)
- transchelation to transferrin / high molecular weight species in plasma [1]: identified Ga-transferrin as a metabolite
- metabolic behavior in plasma over time (degradation of intact probe) [2]: rapid metabolism
- relative amount of metabolites with time post injection [2]: increased with time post injection

Structure (SMILES): CC[C@H](C)[C@H](NC(=O)[C@H](Cc1c[nH]c2ccccc12)NC(=O)[C@@H]1CSSC[C@H](NC(=O)[C@@H](CCC(=O)O)NC(=O)[C@H](Cc2c[nH]c3ccccc23)NC(=O)CN2CCN(CC(=O)O)CCN(CC(=O)O)CCN(CC(=O)O)CC2)C(=O)N2C[C@H](O)C[C@H]2C(=O)N[C@@H](Cc2ccc(O)c(Cl)c2)C(=O)NCC(=O)N[C@@H](CC(C)C)C(=O)N1)C(=O)N[C@@H](CCC(N)=O)C(=O)NCc1ccc(CNC(=O)CN2CCN(CC(=O)O)CCN(CC(=O)O)CCN(CC(=O)O)CC2)cc1 [In-FBP19] ({DOTA}-W[dE]C[Hyp][Tyr(3-Cl)]GLCWIQ-{DOTA(p-xylylenediamine)}; disulfide 3-8)
- transchelation to transferrin / high molecular weight species in plasma [1]: did not identify In-transferrin in the plasma samples
- metabolic behavior in plasma over time (degradation of intact probe) [2]: rapid metabolism
- relative amount of metabolites with time post injection [2]: roughly constant with time

Structure (SMILES): CC[C@H](C)[C@H](NC(=O)[C@H](Cc1c[nH]cn1)NC(=O)[C@@H]1CSSC[C@H](NC(=O)[C@H](Cc2c[nH]cn2)NC(=O)[C@H](Cc2ccccc2)NC(=O)CN2CCN(CC(=O)O)CCN(CC(=O)O)CCN(CC(=O)O)CC2)C(=O)N2C[C@H](O)C[C@H]2C(=O)N[C@@H](Cc2ccc(O)c(Cl)c2)C(=O)N[C@@H](CC(=O)O)C(=O)N[C@@H](CC(C)C)C(=O)N1)C(=O)N[C@@H](CC(C)C)C(=O)NCc1ccc(CNC(=O)CN2CCN(CC(=O)O)CCN(CC(=O)O)CCN(CC(=O)O)CC2)cc1 [Ga-FBP17] ({DOTA}-FHC[Hyp][Tyr(3-Cl)]DLCHIL-{DOTA(p-xylylenediamine)}; disulfide 3-8)
- transchelation to transferrin / high molecular weight species in plasma [1]: did not observe Ga-transferrin or other high molecular weight species
- half-life ([2]; rat, iv, i.v. via femoral vein, 50–150 nmol in PBS, plasma from blood drawn 5, 10, 15, 30, 60 min post injection, intact probe quantified by C18 HPLC-ICP-MS (m/z 69 Ga, 115 In), monoexponential clearance assumed, read-out: calculated half-life of the intact complex): 9 min
- metabolic behavior in plasma over time (degradation of intact probe) [2]: only minimal degradation over time

Structure (SMILES): CC[C@H](C)[C@H](NC(=O)[C@H](Cc1c[nH]cn1)NC(=O)[C@@H]1CSSC[C@H](NC(=O)[C@H](Cc2c[nH]cn2)NC(=O)[C@H](Cc2ccccc2)NC(=O)CN2CCN(CC(=O)O)CCN(CC(=O)O)CCN(CC(=O)O)CC2)C(=O)N2C[C@H](O)C[C@H]2C(=O)N[C@@H](Cc2ccc(O)c(Cl)c2)C(=O)N[C@@H](CC(=O)O)C(=O)N[C@@H](CC(C)C)C(=O)N1)C(=O)N[C@@H](CC(C)C)C(=O)NCc1ccc(CNC(=O)CN2CCN(CC(=O)O)CCN(CC(=O)O)CCN(CC(=O)O)CC2)cc1 [In-FBP15] ({DOTA}-FHC[Hyp][Tyr(3-Cl)]DLCHIL-{DOTA(p-xylylenediamine)}; disulfide 3-8)
- metabolic behavior in plasma over time (degradation of intact probe) [2]: only minimal degradation over time
